Values joined by “and” are separate entries in the source; they are usually repeats but may differ in a detail not shown here. Identical values can stand only once. Like-named read-outs stand apart in the source and are kept apart here. Where no end group is shown, it is not given here.

The target of experiment [1] is stretch-activated channels (SACs) of activated adult rat astrocytes (rat).
Experiment [2] shares this target. This is another data set of the same source.
For experiment [3] the target is unchanged. The experiment in a line: cell-based or functional assay.

B1: GsMTx-4 purified from Grammostola spatulata venom (peptide)
peptide: GCLEFWWKCNPNDDKCCRPKLKCSKLFKLCNFSSG-NH2
modifications: disulfide (positions not given here); not fully specified (bridges); also: 3 disulfides (ICK motif), pairing not given here
A word on the kon: it is a measure of how fast the partners come together. Higher therefore signals faster complex formation. For orientation: Kd means the concentration at which binding is half-saturated. Lower therefore signals higher affinity. As a reminder, the koff is the first-order rate constant of dissociation. A high value points to a short-lived complex. In experiment [1], B1 came in with a kon of 340000 M⁻¹ s⁻¹. Further, in experiment [2], the Kd was 631 nM and 415 nM; the koff amounted to 0.21 s⁻¹; the kon came out at 330000 M⁻¹ s⁻¹. Further, in experiment [3], the average SAC current after GsMTx-4 washout came out at 2.28 pA, the average SAC current during GsMTx-4 application was 0.17 pA, the mean SAC current before GsMTx-4 application amounted to 2.04 pA and the ratio of blocked to unblocked current I/I0 is 0.083. In addition, the time constant of recovery of SAC current on washout in experiment [3] was 4.7 s.

Values taken from patent publication US7125847.
